According to US20040197795A1 (published 2004):

Biological target: T1, RNase I, an RNase from E. coli (Promega Cat. #M4261) (E. coli, UniProt P21338 24-268)
T1 sequence (looked up): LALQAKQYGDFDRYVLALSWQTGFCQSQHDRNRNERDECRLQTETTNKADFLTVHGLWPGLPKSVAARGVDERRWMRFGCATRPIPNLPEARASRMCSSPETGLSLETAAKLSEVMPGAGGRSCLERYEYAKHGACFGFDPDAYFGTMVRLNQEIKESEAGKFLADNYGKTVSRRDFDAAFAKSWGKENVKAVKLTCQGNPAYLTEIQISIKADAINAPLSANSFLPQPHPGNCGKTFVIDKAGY
Experiment: cell-based or functional assay

B1: "RNasin Plus"-brand RNase inhibitor (recombinant rat-derived RNase inhibitor protein, Promega Pt # N261) (other, UniProt P29315 1-456, looked up)
chain: MSLDIQCEQLSDARWTELLPLIQQYQVVRLDDCGLTEVRCKDIRSAIQANPALTELSLRTNELGDAGVGLVLQGLQNPTCKIQKLSLQNCSLTEAGCGVLPDVLRSLSTLRELHLNDNPLGDEGLKLLCEGLRDPQCRLEKLQLEYCNLTATSCEPLASVLRVKPDFKELVLSNNDFHEAGIHTLCQGLKDSACQLESLKLENCGITSANCKDLCDVVASKASLQELDLGSNKLGNTGIAALCSGLLLPSCRLRTLWLWDCDVTAEGCKDLCRVLRAKQSLKELSLAGNELKDEGAQLLCESLLEPGCQLESLWVKTCSLTAASCPHFCSVLTKNRSLFELQMSSNPLGDSGVVELCKALGYPDTVLRVLWLGDCDVTDSGCSSLATVLLANRSLRELDLSNNCMGDNGVLQLLESLKQPSCILQQLVLYDIYWTDEVEDQLRALEEERPSLRIIS
% inhibition of RNase; RNasin Plus-brand inhibitor without DTT increased 10-fold (10×); 58° C.: 100%
